# According to patent US20190054137A1 (INDIANA UNIVERSITY RESEARCH AND TECHNOLOGY, published 2019):
# Target: T1, Recombinant human p65 protein (r-p65) with DDK tag (OriGene catalog number TP320780) (human, UniProt Q04206 1-551)
# T1 construct: mature; also called r-p65-DDK; human r-p65; not shown: DDK tag
# Test: plate-bound PGA probed with r-p65-DDK, method of Friguet, Scatchard analysis
# T1 sequence (Q04206 whole entry): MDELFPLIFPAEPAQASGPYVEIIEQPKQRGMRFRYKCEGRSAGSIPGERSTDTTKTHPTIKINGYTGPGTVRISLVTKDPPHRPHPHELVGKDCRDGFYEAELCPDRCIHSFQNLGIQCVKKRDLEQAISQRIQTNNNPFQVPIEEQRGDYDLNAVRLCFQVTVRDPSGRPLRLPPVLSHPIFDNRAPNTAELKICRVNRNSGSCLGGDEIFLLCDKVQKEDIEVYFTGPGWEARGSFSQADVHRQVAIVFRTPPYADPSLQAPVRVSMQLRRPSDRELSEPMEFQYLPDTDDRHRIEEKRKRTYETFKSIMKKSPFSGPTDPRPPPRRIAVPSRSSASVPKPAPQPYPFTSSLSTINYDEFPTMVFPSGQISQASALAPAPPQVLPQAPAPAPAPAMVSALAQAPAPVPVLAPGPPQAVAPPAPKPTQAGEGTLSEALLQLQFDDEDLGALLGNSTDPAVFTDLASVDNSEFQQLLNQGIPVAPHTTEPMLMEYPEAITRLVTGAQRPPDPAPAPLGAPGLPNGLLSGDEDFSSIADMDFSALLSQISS
row,Binder,Kd [µM]
1,Ac-EPAPEQPDG-NH2 (also called Analog 8 (GA-5)) [PGA-5],3.4
2,Ac-EPAPESPQV-NH2 (also called Analog 7 (GA-4)) [PGA-4],3.28
3,Ac-APKPYQPRG-NH2 (also called Analog 20 (GA-1)) [PGA-1],4.28
4,Ac-EPAPYQPEG-NH2 (also called Analog 14 (GA-3)) [PGA-3],3.27
5,Ac-EPAPLAPYG-NH2 (also called Analog 3 (GA-2)) [PGA-2],2.29
